The numbers were not newly measured in patent publication US20180228866A1, “COMPOSITIONS” (Sigmoid Pharma Limited, priority 2015, published 2018), which cites them from elsewhere.

This series concerns serum TNF-α, IFN-γ, IL-6. The note with it: within 1-4 hours after injection.

As to “OKT3: anti-CD3 mAb, administered as a systemic immunosuppressive agent during organ transplantation”, the “serum levels of proinflammatory cytokines such as TNF-α, IFN-γ, and IL-6” value was “markedly elevated”.
